Source: doi:10.1101/2025.03.24.644901

Biological target: MBP-SCC1 (aa 100-320) with C-terminal tetracysteine motif, FlAsH-labelled (human) (UniProt O60216)
Test: fluorescence polarisation

Chain of MBP-SCC1 (aa 100-320) with C-terminal tetracysteine motif, FlAsH-labelled (human) (O60216 100-320): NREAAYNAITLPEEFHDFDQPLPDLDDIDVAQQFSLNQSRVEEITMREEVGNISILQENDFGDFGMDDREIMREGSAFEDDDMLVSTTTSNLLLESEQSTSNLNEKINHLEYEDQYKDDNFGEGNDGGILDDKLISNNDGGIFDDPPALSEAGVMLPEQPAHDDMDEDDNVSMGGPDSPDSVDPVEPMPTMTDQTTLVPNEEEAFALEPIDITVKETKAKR

For “inactive apo-separase (separase^C2029S), Q14674 1-2120”, the fold lower Kd than for SCC1^350–550 was 3 fold.
